Target: the molecule itself

B1: Herpes simplex virus type 1 SSB/recombination protein ICP8 (natural protein)
chain: METKPKTATTIKVPPGPLGYVYARACPSEGIELLALLSARSGDSDVAVAPLVVGLTVESGFEANVAVVVGSRTTGLGGTAVSLKLTPSHYSSSVYVFHGGRHLDPSTQAPNLTRLCERARRHFGFSDYTPRPGDLKHETTGEALCERLGLDPDRALLYLVVTEGFKEAVCINNTFLHLGGSDKVTIGGAEVHRIPVYPLQLFMPDFSRVIAEPFNANHRSIGEKFTYPLPFFNRPLNRLLFEAVVGPAAVALRCRNVDAVARAAAHLAFDENHEGAALPADITFTAFEASQGKTPRGGRDGGGKGAAGGFEQRLASVMAGDAALALESIVSMAVFDEPPTDISAWPLFEGQDTAAARANAVGAYLARAAGLVGAMVFSTNSALHLTEVDDAGPADPKDHSKPSFYRFFLVPGTHVAANPQVDREGHVVPGFEGRPTAPLVGGTQEFAGEHLAMLCGFSPALLAKMLFYLERCDGAVIVGRQEMDVFRYVADSNQTDVPCNLCTFDTRHACVHTTLMRLRARHPKFASAARGAIGVFGTMNSMYSDCDVLGNYAAFSALKRADGSETARTIMQETYRAATERVMAELETLQYVDQAVPTAMGRLETIITNREALHTVVNNVRQVVDREVEQLMRNLVEGRNFKFRDGLGEANHAMSLTLDPYACGPCPLLQLLGRRSNLAVYQDLALSQCHGVFAGQSVEGRNFRNQFQPVLRRRVMDMFNNGFLSAKTLTVALSEGAAICAPSLTAGQTAPAESSFEGDVARVTLGFPKELRVKSRVLFAGASANASEAAKARVASLQSAYQKPDKRVDILLGPLGFLLKQFHAAIFPNGKPPGSNQPNPQWFWTALQRNQLPARLLSREDIETIAFIKKFSLDYGAINFINLAPNNVSELAMYYMANQILRYCDHSTYFINTLTAIIAGSRRPPSVQAAAAWSAQGGAGLEAGARALMDAVDAHPGAWTSMFASCNLLRPVMAARPMVVLGLSISKYYGMAGNDRVFQAGNWASLMGGKNACPLLIFDRTRKFVLACPRAGFVCAASSLGGGAHESSLCEQLRGIISEGGAAVASSVFVATVKSLGPRTQQLQIEDWLALLEDEYLSEEMMELTARALERGNGEWSTDAALEVAHEAEALVSQLGNAGEVFNFGDFGCEDDNATPFGGPGAPGPAFAGRKRAFHGDDPFGEGPPDKKGDLTLDML
- binding result: binds

Reference: PMC2757162 (Journal of molecular biology, 2008)
